Reference: article PMC6366758, “Structure basis of neutralization by a novel site II/IV antibody against respiratory syncytial virus fusion protein” (PLoS ONE, 2019)

Assays:
Conditions in all cases: both partners purified
[1] = target: T1, Antigenic site II synthetic peptide of RSV F (254-278) (Human respiratory syncytial virus A, …); assay: SPR; Biacore T200; mAb (2 ug/mL, 90 s) captured on protein A or protein G on a CM5 chip; site II peptides injected at 100, 200, 400, 800 nM, 180 s, then 600 s buffer; 1:1 fit; apparent KD = kd/ka
T1 construct: RSV F antigenic site II, residues 254-278; also called Site II peptide; full-length peptide; source: synthetic peptide (Peptide 2.0)
T1 chain: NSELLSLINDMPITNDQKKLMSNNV

[2] = target: T2, Antigenic site II peptide 264-278 (Human respiratory syncytial virus A (A2 …)); assay: as above
T2 construct: RSV F antigenic site II, residues 264-278; source: synthetic peptide (Peptide 2.0)
T2 chain: MPITNDQKKLMSNNV

[3] = target: T3, Antigenic site II peptide 254-273 (human respiratory syncytial virus); assay: as above
T3 construct: RSV F antigenic site II, residues 254-273; source: synthetic peptide (Peptide 2.0)
T3 chain: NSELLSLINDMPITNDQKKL

[4] = target: T4, Antigenic site II peptide 260-278 (Human respiratory syncytial virus A (A2 …)); assay: as above
T4 construct: RSV F antigenic site II, residues 260-278; source: synthetic peptide (Peptide 2.0)
T4 chain: LINDMPITNDQKKLMSNNV

[5] = target: T5, Antigenic site II peptide 254-268 (Human respiratory syncytial virus A (A2 …)); assay: as above
T5 construct: RSV F antigenic site II, residues 254-268; source: synthetic peptide (Peptide 2.0)
T5 chain: NSELLSLINDMPITN

[6] = target: T6, Antigenic site II peptide 259-273 (Human respiratory syncytial virus A (A2 …)); assay: as above
T6 construct: RSV F antigenic site II, residues 259-273; source: synthetic peptide (Peptide 2.0)
T6 chain: SLINDMPITNDQKKL

Pre-fusion F = target: T7, Pre-fusion F (Human respiratory syncytial virus A, …, UniProt P03420, stabilised); assay: SPR; Biacore T200; mAb (2 ug/mL) captured on protein A or protein G amine-coupled to a CM5 chip; RSV F injected at 3.3, 10, 30, 90 nM, 180 s association, 600 s dissociation; 1:1 fit; apparent KD = kd/ka
T7 construct: Fusion (F) glycoprotein F0 of human RSV/A2, residues 26-574, intact TM/CT; mutant furin site I, p27 region deleted, fusion peptide deletion, three stabilizing substitutions; Expressed with a gp64 signal peptide; also called pre-fusion RSV F; pre-fusion trimer; source: Sf9, baculovirus-infected, extracted from cell pellets, purified

Post-fusion F = target: T8, Post-fusion F (Human respiratory syncytial virus A, …, stabilised); assay: as above
T8 construct: Fusion (F) glycoprotein of human RSV/A2 from residue 26, TM/CT domains replaced with a C-terminal 6-histidine tag; Expressed with a gp64 signal peptide; also called post-fusion RSV F; post-fusion trimer; source: Sf9, baculovirus-infected, culture supernatant, purified (IMAC, ion exchange)

B1: R4.C6 monoclonal antibody (antibody, V domains shown)
VH: EVQLQQSGPELVKPGASVKISCKASGYAFSNSWMSWVKQRPGKGLEWIGRLFPADGDITYNGHFKDKAALTADKSSNTAYIQLSSLTSEDSAVYFCARMDNSEVFWGQGTLVTVSA
VL: DILLTQSQKFMSTSVGDRVSITCKASQNVRTGVSWYQRKPGQSPKALIYLASNRHTGVPDRFTGRGSGTDFTLTISEVQSEDLADYFCLQHWTVPYTFGGGTKLEIK
notes: mouse IgG2a; mouse kappa; Only the Fv was modelled in 6CXC; also called mAb R4.C6; source: mouse hybridoma (BALB/c immunized with RSV F NP), serum free medium, purified (protein-G)
Kd [1]: 12.5 nM | Kd [2]: 110 nM | binding result [3]: no binding (tested: 800 nM) | Kd [4]: 84.2 nM | binding result [5]: no binding (tested: 800 nM) | binding result [6]: no binding (tested: 800 nM) | binding result (Pre-fusion F): binds | Kd (Post-fusion F): 0.34 nM

B2: Motavizumab (antibody, V domains shown)
VH: QVTLRESGPALVKPTQTLTLTCTFSGFSLSTAGMSVGWIRQPPGKALEWLADIWWDDKKHYNPSLKDRLTISKDTSKNQVVLKVTNMDPADTATYYCARDMIFNFYFDVWGQGTTVTVSS
VL: DIQMTQSPSTLSASVGDRVTITCSASSRVGYMHWYQQKPGKAPKLLIYDTSKLASGVPSRFSGSGSGTEFTLTISSLQPDDFATYYCFQGSGYPFTFGGGTKVEIK
notes: IgG1; kappa; also called motatvizumab; source: obtained from National Institute of Standards and Technology
Kd [1]: 26.7 nM | binding result (Pre-fusion F): binds
